Literature values as cited in article PMC6295873 (Chemical Science, 2018).

What was measured:
[1] = MUC1-based anticancer-vaccines; ref 39 (preceding sentence)

Row | Substance | half-life in blood [min] | immunogenicity [1]
1 | KP10: endogenous neuropeptide acting through its cognate G-protein-coupled receptor, KiSS1R | < 1 | 
2 | natural MUC1 glycoprotein: densely O-glycosylated human mucin glycoprotein |  | very low immunogenicity
